Data from PMC12368637.
pKd: −log10 of the molar value.

Tests used:
[1] = target: Human cystatin C (human) (UniProt P01034); assay: ITC; 300 uM HSA in the syringe, 30 uM HCC in the cell; PBS; 25.2 °C; MicroCal PEAQ-ITC; single set of identical sites model
[2] = target: Human serum albumin (human) (UniProt P02768); assay: NMR (1H-15N HSQC and 15N relaxation); 15N-labelled V57G HCC with and without equimolar HSA (around 0.3 mM each); PBS, 90%/10% H2O/D2O, pH 7.0; 298 K

pKd [1] | dH [1] [kcal/mol] | stoichiometry N [1] | percent of V57G HCC that interacted with HSA [2] [%] | Substance
5.94 | 1.88 | 0.642 | – | Human serum albumin (from UniProt P02768 25-609) (natural protein)
– | – | – | 4 | V57G mutant of human cystatin C (from UniProt P01034 27-146) (natural protein)
